Reference: paper PMC6776259 (PLoS Pathogens, 2019)

Molecular target: the molecule itself
Experiment: split reporter (BiFC, NanoBiT)

B1: WSN FluPol heterotrimer in cells infected with recombinant WSN viruses expressing PB1-Gluc1 and PB1-Gluc2 (complex)
chain 1: MDVNPTLLFLKVPAQNAISTTFPYTGDPPYSHGTGTGYTMDTVNRTHQYSERGRWTTNTETGAPQLNPIDGPLPEDNEPSGYAQTDCVLEAMAFLEESHPGIFETSCLETMEVVQQTRVDKLTQGRQTYDWTLNRNQPAATALANTIEVFRSNGLTANESGRLIDFLKDVMESMNKEEMEITTHFQRKRRVRDNMTKKMVTQRTIGKRKQRLNKRSYLIRALTLNTMTKDAERGKLKRRAIATPGMQIRGFVYFVETLARSICEKLEQSGLPVGGNEKKAKLANVVRKMMTNSQDTEISFTITGDNTKWNENQNPRMFLAMITYITRNQPEWFRNVLSIAPIMFSNKMARLGKGYMFESKSMKIRTQIPAEMLASIDLKYFNDSTRKKIEKIRPLLIDGTASLSPGMMMGMFNMLSTVLGVSILNLGQKRHTKTTYWWDGLQSSDDFALIVNAPNHEGIQAGVNRFYRTCKLLGINMSKKKSYINRTGTFEFTSFFYRYGFVANFSMELPSFGVSGINESADMSIGVTVIKNNMINNDLGPATAQMALQLFIKDYRYTYRCHRGDTQIQTRRSFEIKKLWEQTHSKAGLLVSDGGPNLYNIRNLHIPEVCLKWELMDEDYQGRLCNPLNPFVNHKDIESVNNAVIMPAHGPAKNMEYDAVATTHSWIPKRNRSILNTSQRGILEDEQMYQKCCNLFEKFFPSSSYRRPVGISSMVEAMVSRARIDARIDFESGRIKKEEFTEIMKICSTIEELRRQK
chain 2: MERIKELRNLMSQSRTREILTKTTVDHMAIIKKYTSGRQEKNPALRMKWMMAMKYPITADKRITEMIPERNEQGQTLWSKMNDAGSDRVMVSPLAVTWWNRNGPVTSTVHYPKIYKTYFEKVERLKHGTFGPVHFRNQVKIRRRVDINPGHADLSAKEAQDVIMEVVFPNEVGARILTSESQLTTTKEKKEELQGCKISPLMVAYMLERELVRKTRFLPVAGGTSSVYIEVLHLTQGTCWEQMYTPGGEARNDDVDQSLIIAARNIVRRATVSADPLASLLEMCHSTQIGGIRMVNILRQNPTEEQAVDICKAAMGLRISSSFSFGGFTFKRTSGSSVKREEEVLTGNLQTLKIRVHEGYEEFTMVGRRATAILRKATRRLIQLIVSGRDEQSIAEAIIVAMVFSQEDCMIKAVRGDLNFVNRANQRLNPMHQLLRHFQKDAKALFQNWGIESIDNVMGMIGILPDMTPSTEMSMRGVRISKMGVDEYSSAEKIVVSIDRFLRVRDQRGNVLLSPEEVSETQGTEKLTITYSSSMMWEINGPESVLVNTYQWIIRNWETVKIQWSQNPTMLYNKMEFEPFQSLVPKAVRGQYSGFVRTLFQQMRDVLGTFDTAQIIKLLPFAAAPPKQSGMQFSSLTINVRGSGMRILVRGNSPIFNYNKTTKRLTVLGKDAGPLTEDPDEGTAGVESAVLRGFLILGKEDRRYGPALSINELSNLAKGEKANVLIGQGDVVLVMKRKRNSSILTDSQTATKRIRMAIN
chain 3: […]
notes: copies: + +
- luciferase activity, fold over background: > 1000 fold over background
